Tests used:
mouse CD40-hFc = biological target: T1, mouse CD40-hFc (mouse, UniProt P27512 20-193); experiment: ELISA, muCD40-hFc coated
T1 construct: Bought protein; also called muCD40-hFc

[1] = biological target: T2, recombinant rhesus CD40 (ECD)-hFc (rhesus monkey, UniProt P25942 21-193 (human entry)); experiment: ELISA, rhCD40(ECD)-hFc coated
T2 construct: Bought protein; also called rhCD40(ECd)-hFc; monkey CD40 (ECD)-hFc
T2 chain: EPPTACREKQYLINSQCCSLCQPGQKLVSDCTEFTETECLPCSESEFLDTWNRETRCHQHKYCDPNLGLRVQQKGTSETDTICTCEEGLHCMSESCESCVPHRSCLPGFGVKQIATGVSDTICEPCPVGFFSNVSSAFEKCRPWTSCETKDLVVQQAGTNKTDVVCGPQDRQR
Protocol: (§1) ELISA plates were coated with 500 ng/ml human CD40 (ECD)-his (Sino Biological, CN, Cat #: 10774-H08H) at 4° C. overnight. The wells were blocked with 200 μl of blocking buffer (PBS containing 1% BSA, 1% goat serum, and 0.05% Tween 20) for 2 hours at room temperature, and then 100 μl of serially diluted anti-CD40 antibodies (starting from 40000 ng/ml) were added to each well and incubated for 1 hour at RT. Plates were washed for 3 times with PBST (PBS+0.05% Tween 20), added with Goat-anti-mouse IgG-HRP (Simga, US, Cat #: A9309-1 ml) diluted 5000×, and incubated for 1 hour at RT. Plates were developed with freshly prepared Ultra-TMB (BD, US, Cat #: 555214) for 5 minutes at RT. Absorbance was read on a SpectraMax® i3X (Molecular Devies, US) at 450 nm.
Species-cross-reactivity of the 20 CD40 mAbs to monkey or mouse CD40 was further assessed by direct ELISA. Briefly, 500 ng/ml monkey CD40 (ECD)-hFc (Sino Biological, CN, Cat #: 90097-C02H) or mouse CD40-hFc (Sino Biological, CN, Cat #: 50324-M03H) was coated on 96-well ELISA plates followed by incubation with 100 μl of serially diluted anti-CD40 antibodies (starting from 40000 ng/ml). Goat anti-mouse IgG conjugated with HRP (Sigma, US, Cat #: A9309-1ml) was used then.

[2] = biological target: T3, human CD40 expressed on cells (human, UniProt P25942 21-277); experiment: FACS, HEK293A/humanCD40 cells
T3 construct: also called HEK293A/humanCD40
Protocol: (§2) Example 5 Mouse Anti-CD40 Monoclonal Antibodies Bound to Human and Rhesus CD40 Expressed on HEK293A Cells To further determine whether anti-CD40 antibodies bound to human, monkey or mouse CD40 expressed on HEK293A cells, a cell-based binding assay by FACS was performed using the HEK293A cells stably overexpressing human, monkey or mouse CD40 as generated in Example 1, respectively. Briefly, 10^5 HEK293A cells were seeded into each well of the 96-well plates and serially diluted anti-CD40 antibodies were added to the plates. After incubated at 4° C. for 1 hour, plates were washed 3 times with PBST. Then, an APC coupled Goat Anti-Mouse IgG (BioLegen, US, Cat #: 405308) diluted 500× was added to the plates. After incubation at 4° C. for 1 hour, the plates were washed with PBS for 3 times and then cell fluorescence was monitored using a FACS machine (BD).

[3] = biological target: T3, human CD40 expressed on cells; experiment: cell-based or functional assay
[4] = biological target: T4, recombinant human CD40 (ECD)-his (human, UniProt P25942 21-193); experiment: ELISA, hCD40(ECD)-his coated
T4 construct: Bought protein; also called hCD40(ECD)-his; TNFRSF5
Protocol: as §1

[5] = biological target: T5, mouse CD40 expressed on HEK293A cells (mouse, UniProt P27512 20-289); experiment: FACS, HEK293A/mouseCD40 cells
T5 construct: also called HEK293A/mouseCD40

[6] = biological target: T6, rhesus CD40 expressed on HEK293A cells (rhesus monkey, UniProt P25942 21-277 (human entry)); experiment: FACS, HEK293A/rhesusCD40 cells
T6 construct: also called HEK293A/rhesusCD40
T6 chain: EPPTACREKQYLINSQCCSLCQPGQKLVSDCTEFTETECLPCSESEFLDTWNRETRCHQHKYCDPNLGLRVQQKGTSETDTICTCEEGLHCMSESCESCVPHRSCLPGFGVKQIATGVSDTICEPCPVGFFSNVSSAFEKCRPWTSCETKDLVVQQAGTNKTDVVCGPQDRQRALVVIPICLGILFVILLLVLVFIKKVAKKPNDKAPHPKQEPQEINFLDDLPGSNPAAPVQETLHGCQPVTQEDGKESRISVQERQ
Protocol: as §2

T3 sequence (P25942 21-277 limits assumed): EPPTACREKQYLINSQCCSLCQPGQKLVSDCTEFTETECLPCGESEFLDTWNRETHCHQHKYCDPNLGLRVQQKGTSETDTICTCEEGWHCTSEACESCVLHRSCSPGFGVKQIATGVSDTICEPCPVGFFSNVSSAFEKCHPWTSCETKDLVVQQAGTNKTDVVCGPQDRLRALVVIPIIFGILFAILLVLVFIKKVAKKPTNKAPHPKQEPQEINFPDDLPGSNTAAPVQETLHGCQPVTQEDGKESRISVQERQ
T1 sequence (P27512 20-193): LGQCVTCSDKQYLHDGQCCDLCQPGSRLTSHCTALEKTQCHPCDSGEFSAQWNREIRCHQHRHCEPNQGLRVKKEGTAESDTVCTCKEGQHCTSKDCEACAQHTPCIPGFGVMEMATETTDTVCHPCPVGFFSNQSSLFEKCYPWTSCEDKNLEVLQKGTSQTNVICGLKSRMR
T5 sequence (P27512 20-289 limits assumed): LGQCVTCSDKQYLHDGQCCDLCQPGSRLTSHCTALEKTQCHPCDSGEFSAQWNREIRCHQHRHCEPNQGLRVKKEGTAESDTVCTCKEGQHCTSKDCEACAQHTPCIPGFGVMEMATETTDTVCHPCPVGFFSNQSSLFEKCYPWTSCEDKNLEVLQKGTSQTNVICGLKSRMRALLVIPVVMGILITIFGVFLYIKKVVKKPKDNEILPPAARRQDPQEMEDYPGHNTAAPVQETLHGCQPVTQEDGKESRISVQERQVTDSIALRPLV
T4 sequence (P25942 21-193): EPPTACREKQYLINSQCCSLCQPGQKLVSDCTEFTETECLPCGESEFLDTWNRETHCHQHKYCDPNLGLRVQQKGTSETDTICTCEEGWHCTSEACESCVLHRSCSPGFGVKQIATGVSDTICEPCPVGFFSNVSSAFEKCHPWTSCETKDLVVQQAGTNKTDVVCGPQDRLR

B1: 142F7 (mouse monoclonal antibody) (antibody, V domains shown)
VH: EVQLEQSGAELVRPGTSVKVSCKASGYAFTNYLIEWGIQRPGQGLEWIGVINPGTGGTNYNEKFKDKATLTTDKSSSTAYMQLSSLTSDDSAVYFCARGGSGFAYWGQGTLVTVSA
VL: DIVLTQTTSSLSASLGDRVTISCRASQDINNYLNWYQQKPDGTVKLLIYYTSRLHSGVPSRFSGSGSGTDYSLTISNLEQEDIATYFCQQGNTLPWTFGGGTKLEIK
With B1 the binding result (mouse CD40-hFc) was “no binding”, the EC50 [1] was 0.0201 µg/mL and the EC50 [2] was 0.0155 µg/mL. The “HEK Blue EC50” value [3] was 0.0648 µg/mL, the EC50 [4] was 0.0171 µg/mL and the binding result [5] was “no binding”. The EC50 [6] was 0.0807 µg/mL.

B2: 77D9 (mouse monoclonal antibody) (antibody, V domains shown)
VH: QVKLEESGGGLVKPGGSLKLSCAASGFTFRNYAMSWVRQSPGERLEWVAEVSGSGYYTYYPDTVTGRFTISRDNANNTLYLEVSSLRSEDTAMYYCTSRAYWGQGTLVTVSA
VL: IVMTQSPTLSLPVSLGDQASISCRSSQSIVLTNGNTYLEWYLQRPGQSPKLLIYKVSNRFSGVPDRFSGSGSGTDFTLKISRVEAEDLGVYYCFQGSHVPYTFGGGTKLEIK
B2 was tested, and the binding result (mouse CD40-hFc) was “no binding”, the EC50 [1] was 0.0206 µg/mL and the EC50 [2] was 0.033 µg/mL. The “HEK Blue EC50” value [3] was 0.0223 µg/mL, the EC50 [4] was 0.0214 µg/mL and the binding result [5] was “no binding”. It also gave an EC50 [6] of 0.117 µg/mL.

B3: 92F6 (mouse monoclonal antibody) (antibody, V domains shown)
VH: QVQLEQSGAEVVKPGASVKVSCTASGFNIKDTYMHWVKQRPEQGLEWIGRIDPANGNTNYDPKFQGKATITADTSSNTGYLQLSSLTSEDTAVYYCSRWGYDWYFDVWGAGTSVTVSS
VL: DIVITQSTAIMSASPGEKVTITCSASSSVSYIHWFQQKPGTSPKLWIYTTANLASGVPARFSGSGSGTSYSLTISRMEAEDAATYYCQQRSNYPFTFGSGTKLEIK
B3 was tested, and the binding result (mouse CD40-hFc) was “no binding”, the EC50 [1] was 0.0365 µg/mL and the EC50 [2] was 0.0779 µg/mL. For the same binder, the “HEK Blue EC50” value [3] was 0.264 µg/mL, the EC50 [4] was 0.0291 µg/mL and the binding result [5] was “no binding”. The EC50 [6] was 0.13 µg/mL.

B4: 50F6 (mouse monoclonal antibody) (antibody, V domains shown)
VH: QVQLEQSGDDLVKPGASVKLSCKASGYTFTTYWINWIKQRPGQGLEWIGRISPGSGSTHYNEMFKGKATLTVDTSSSTAYIQLSSLSSEDSAVYFCTRNDYWGQGTTLTVSS
VL: DIVLTQSPLSLPVSLGDQASISCRSSQSIVNSNGNTYLEWYLQKPGQSPKLLIYKVSNRFSGVPDRFSGSGSGTDFTLKISRVEAEDLGVYYCFQGSHVPLTFGAGTKLELK
With B4 the binding result (mouse CD40-hFc) was “no binding”, the EC50 [1] was 0.016 µg/mL and the EC50 [2] was 0.134 µg/mL. The “HEK Blue EC50” value [3] was 0.0422 µg/mL, the EC50 [4] was 0.0155 µg/mL and the binding result [5] was “no binding”. For the same binder, the EC50 [6] was 0.137 µg/mL.

B5: 29A10 (mouse monoclonal antibody) (antibody, V domains shown)
VH: QVKLEQSGGGLVKPGGSLKLSCAASGFTFSHYYMYWVRQTPEKRLEWVATISDAGSYTYYSDSVKGRFTISRDNAKNNLYLQMSSLKSDDTAMYFCARTYYRGDGGYWFFDVWGAGTAVTVSS
VL: DIVITQSTSSLAVSVGEKVTMSCESSQSLLYSSNQKNYLAWYQQKPGQSPKLLIYWASTRESGVPDRFTASGSGTDFTLTISSVKAEDLAVYYCQQYYRSPLTFGAGTKLELK
With B5 the binding result (mouse CD40-hFc) was “no binding”, the EC50 [1] was 0.0302 µg/mL and the EC50 [2] was 0.203 µg/mL. The “HEK Blue EC50” value [3] was 0.14 µg/mL, the EC50 [4] was 0.0318 µg/mL and the binding result [5] was “no binding”. For the same binder, the EC50 [6] was 0.184 µg/mL.

B6: 7B4 (mouse monoclonal antibody) (antibody, V domains shown)
VH: EVQLQESGPGLVKPSQSLSLTCSVTGYSITTNYYWNWIRQFPGNKLEWMGYIKYDGSNNYNPSLKNRISITRDTSKNQFFLKLNSVTTEDTATYYCARLDYWGQGTSVTVSS
VL: DIVLTQSPLSLPVSLGDQASISCRSSQSLENSNGNTFLNWFLQKPGQSPQLLIYKVSNRFSGVLDRFSGTGSGTDFTLTISRVEAEDLGVYFCLQVTHVPFTFGSGTKLEIK
In the case of B6, the binding result (mouse CD40-hFc) is reported as “no binding”, the EC50 [1] is reported as 0.0152 µg/mL and the EC50 [2] is reported as 0.0101 µg/mL. For the same binder, the “HEK Blue EC50” value [3] was 0.0261 µg/mL, the EC50 [4] was 0.0153 µg/mL and the binding result [5] was “no binding”. It also gave an EC50 [6] of 0.0159 µg/mL.

B7: 16A6 (mouse monoclonal antibody) (antibody, V domains shown)
VH: EVQLEQSGPGLVKPSQSLSLTCSVTGYSITTNYHWNWIRQFPGNKLEWMGYIKYDGSNNYNPSLKNRISITRDTSKNQFFLKLNSVTTEDTATYYCARLDYWGQGTSVTVSS
VL: DIVLTQSTLSLSVSLGDQASISCRSSQSLENSNGNTFLNWFLQKPGQSPQLLIYKVSNRFSGVLDRFSGTGSGTDLTLTISRVEAEDLGVYFCLQVTHVPFTFGSGTKLEIK
For B7, the binding result (mouse CD40-hFc) was “no binding”, the EC50 [1] was 0.0129 µg/mL and the EC50 [2] was 0.0682 µg/mL. The “HEK Blue EC50” value [3] was 0.0114 µg/mL, the EC50 [4] was 0.0131 µg/mL and the binding result [5] was “no binding”. The EC50 [6] was 0.044 µg/mL.

B8: 13A2 (mouse monoclonal antibody) (antibody, V domains shown)
VH: EVKLEQSGPGLVKPSQSLSLTCSVTGYSITTNYYWNWIRQFPGNKLEWMGYINYDGSNNYNPSLKNRISITRDTSKNQFFLKLNSVTTEDTATYYCARLDYWGQGTSVTVSS
VL: DIVMTQSPLSLPVSLGDQASISCRSSQSLENSNGNTFLNWFLQKPGQSPQLLIYKVSNRFSGVLDRFSGTGSGTDFTLTISRVEAEDLGVYFCLQVTHVPFTFGSGTKLEIK
For B8, the binding result (mouse CD40-hFc) was “no binding”, the EC50 [1] was 0.0141 µg/mL and the EC50 [2] was 0.0485 µg/mL. For the same binder, the “HEK Blue EC50” value [3] was 0.0126 µg/mL, the EC50 [4] was 0.0207 µg/mL and the binding result [5] was “no binding”. The EC50 [6] was 0.0843 µg/mL.

From US10654939 (BEIJING MABWORKS BIOTECH, dated 2020)
